Read-outs that look alike come from different tables or passages of the source.
Columns and labels:
human TrkA ECD [1] = biological target: T1, human TrkA ECD (human); test: BLI
T1 chain: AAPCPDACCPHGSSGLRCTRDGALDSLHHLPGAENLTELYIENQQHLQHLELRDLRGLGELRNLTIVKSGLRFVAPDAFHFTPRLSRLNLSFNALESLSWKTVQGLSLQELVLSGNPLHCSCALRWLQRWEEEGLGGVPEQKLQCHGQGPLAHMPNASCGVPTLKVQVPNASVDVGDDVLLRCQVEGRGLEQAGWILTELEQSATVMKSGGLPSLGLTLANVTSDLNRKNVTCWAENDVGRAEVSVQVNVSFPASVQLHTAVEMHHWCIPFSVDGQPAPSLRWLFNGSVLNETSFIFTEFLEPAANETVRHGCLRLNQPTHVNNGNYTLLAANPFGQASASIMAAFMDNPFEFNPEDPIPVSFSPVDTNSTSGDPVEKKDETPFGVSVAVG

TrkA (cell surface) = TrkA (cell surface) (human); test: FACS
TrkA (cell surface) (human), sequence (B2R6T5 whole entry, the tested form may be a part): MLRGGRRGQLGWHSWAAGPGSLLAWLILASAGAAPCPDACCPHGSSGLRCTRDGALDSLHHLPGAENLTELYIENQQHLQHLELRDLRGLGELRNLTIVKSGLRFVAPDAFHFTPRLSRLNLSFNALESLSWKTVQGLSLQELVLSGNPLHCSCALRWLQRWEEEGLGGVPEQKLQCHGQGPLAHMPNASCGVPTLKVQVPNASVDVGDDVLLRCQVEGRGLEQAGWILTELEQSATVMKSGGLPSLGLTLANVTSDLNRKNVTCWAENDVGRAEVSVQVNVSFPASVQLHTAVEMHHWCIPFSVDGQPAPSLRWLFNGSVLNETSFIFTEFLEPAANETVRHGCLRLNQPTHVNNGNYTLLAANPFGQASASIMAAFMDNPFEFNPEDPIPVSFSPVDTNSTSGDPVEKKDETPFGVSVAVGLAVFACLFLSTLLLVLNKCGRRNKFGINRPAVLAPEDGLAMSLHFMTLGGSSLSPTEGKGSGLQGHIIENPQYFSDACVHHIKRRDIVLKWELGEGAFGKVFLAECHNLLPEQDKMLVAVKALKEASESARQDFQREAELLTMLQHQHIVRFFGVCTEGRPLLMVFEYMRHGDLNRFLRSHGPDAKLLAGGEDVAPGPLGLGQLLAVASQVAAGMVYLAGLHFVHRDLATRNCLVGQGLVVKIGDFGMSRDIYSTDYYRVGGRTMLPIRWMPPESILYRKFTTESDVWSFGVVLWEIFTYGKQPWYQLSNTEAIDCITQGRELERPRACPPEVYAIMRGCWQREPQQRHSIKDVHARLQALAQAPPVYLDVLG

human TrkA ECD [2] = biological target: T1, human TrkA ECD; test: BLI

Binder | Kd (human TrkA ECD [1]) [nM] | EC50 (TrkA (cell surface)) [nM] | Kd (human TrkA ECD [2]) [nM]
Hu70D3A6-V12 (antibody, V domains shown) VH: EVQLVESGGGLVKPGGSLRLSCAASGFTFTYYAMSWVRQAPGKGLEWVSSISGGGDVYYADSVKGRFTISRDNAKNTLYLQMNSLRAEDTAVYYCARGVGGNYFDYWGQGTLVTVSS VL: DIQMTQSPSSLSASVGDRVTITCSASSSVSYMYWYQQKPGKAPKPLIYRTSNLASGVPSRFSGSGSGTDFTLTISSLQPEDFATYYCQLYHSYTPITFGQGTKLEIK | 0.591 | ~0.289 | –
Hu99H4D5-V6 (antibody, V domains shown) VH: EVQLVESGGGLVKPGGSLRLSCAASGFTFSYYAISWVRQAPGKGLEWVSSISGGGDVYYADSVKGRFTISRDNAKNTLYLQMNSLRAEDTAVYYCARGVGGNYFDYWGQGTLVTVSS VL: DIQMTQSPSSLSASVGDRVTITCSASSSVSYMYWYQQKPGKAPKPLIYRTSNLASGVPSRFSGSGSGTDFTLTISSLQPEDFATYYCQQYHSYTPITFGQGTKLEIK | 0.753 | ~0.362 | –
Chi70D3A6 (antibody, V domains shown) VH: EVKLVESGGDLVKPGGSLKLSCTASGFTFTYYAMSWVRQTPEKRLEWVATISGGGDTYYLDSVKGRFTISRDNAGNILYLQMSSLRSEDTAMYYCARGVGGNFFDYWGQGSTLTVSS VL: QIVLTQSPAIMSASPGEKVTISCSASSSVSYMYWYQQKPGSSPKPFIYRTSNLASGVPSRFSGSGSGTSYSLTVSTMEAEDAATYYCQLYHSYTPITFGAGTKLELK | – | – | 0.771
Chi99H4D5 (antibody, V domains shown) VH: EVKLVESGGGLVKPGGSLKLSCAASGFTFSYYAISWLRQTPEKRLEWVASISGNGDTYYLDSVKGRFTISRDNARNILYLQMSSLRSEDTAMYYCARGVGGNYFDYWGQGTTLTVSS VL: DIVMTQSPAIMSASPGEKVTISCSASSSVSYMYWYQQKPGSSPKPLIYRTSNLASGVPARFSGSGSGTSYSLTISTMEAEDAATYYCQQYHSYTPITFGAGTKLDLK | – | – | 1.3
